Experimental findings from patent US20200292537A1 (THEUNITEDSTATES OF AMERICA ASREPRESENTEDBYTHE SECRETARYOF …, published 2020) are described below.

Test [1] concerns the target recombinant RON protein (extracellular domain, R&D Systems) (human) (UniProt Q04912). Kind of test: full-length MET sandwich immunoassay; RON extracellular domain at 4 to 400 pM, 10-fold over rMET.
In test [2] the target is pY1235-MET (human MET phosphorylated at tyrosine 1235) (human) (UniProt P08581). Briefly: interaction analysis with a BIAlite-Biosensor (Pharmacia), range of protein concentrations.
The target in test [3] is T1, recombinant RON (cytoplasmic domain, Millipore) (UniProt Q04912 983-1400, limits assumed).
T1 construct: domain: cytoplasmic domain; also called recombinant cytoplasmic RON; cytoplasmic domain of RON
T1 sequence (looked up): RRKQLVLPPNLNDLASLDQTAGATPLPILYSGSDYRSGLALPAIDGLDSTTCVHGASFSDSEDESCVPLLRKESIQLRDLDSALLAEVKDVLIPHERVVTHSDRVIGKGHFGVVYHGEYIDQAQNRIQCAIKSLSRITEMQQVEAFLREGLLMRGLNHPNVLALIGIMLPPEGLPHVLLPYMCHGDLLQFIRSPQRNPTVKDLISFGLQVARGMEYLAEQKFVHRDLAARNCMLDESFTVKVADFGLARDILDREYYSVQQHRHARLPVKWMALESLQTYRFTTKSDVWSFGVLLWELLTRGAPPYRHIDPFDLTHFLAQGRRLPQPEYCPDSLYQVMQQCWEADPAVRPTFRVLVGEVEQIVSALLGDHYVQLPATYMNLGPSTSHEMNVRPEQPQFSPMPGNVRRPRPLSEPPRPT
Briefly: Western blot of recombinant RON and preincubation of the antibody with RON. (In western blotting, separated proteins are transferred to a membrane and probed.)

The IC50 is the point on the concentration scale where inhibition reaches its midpoint. A low value points to inhibition by little substance.

Chain of recombinant RON protein (extracellular domain, R&D Systems) (human) (Q04912 25-957): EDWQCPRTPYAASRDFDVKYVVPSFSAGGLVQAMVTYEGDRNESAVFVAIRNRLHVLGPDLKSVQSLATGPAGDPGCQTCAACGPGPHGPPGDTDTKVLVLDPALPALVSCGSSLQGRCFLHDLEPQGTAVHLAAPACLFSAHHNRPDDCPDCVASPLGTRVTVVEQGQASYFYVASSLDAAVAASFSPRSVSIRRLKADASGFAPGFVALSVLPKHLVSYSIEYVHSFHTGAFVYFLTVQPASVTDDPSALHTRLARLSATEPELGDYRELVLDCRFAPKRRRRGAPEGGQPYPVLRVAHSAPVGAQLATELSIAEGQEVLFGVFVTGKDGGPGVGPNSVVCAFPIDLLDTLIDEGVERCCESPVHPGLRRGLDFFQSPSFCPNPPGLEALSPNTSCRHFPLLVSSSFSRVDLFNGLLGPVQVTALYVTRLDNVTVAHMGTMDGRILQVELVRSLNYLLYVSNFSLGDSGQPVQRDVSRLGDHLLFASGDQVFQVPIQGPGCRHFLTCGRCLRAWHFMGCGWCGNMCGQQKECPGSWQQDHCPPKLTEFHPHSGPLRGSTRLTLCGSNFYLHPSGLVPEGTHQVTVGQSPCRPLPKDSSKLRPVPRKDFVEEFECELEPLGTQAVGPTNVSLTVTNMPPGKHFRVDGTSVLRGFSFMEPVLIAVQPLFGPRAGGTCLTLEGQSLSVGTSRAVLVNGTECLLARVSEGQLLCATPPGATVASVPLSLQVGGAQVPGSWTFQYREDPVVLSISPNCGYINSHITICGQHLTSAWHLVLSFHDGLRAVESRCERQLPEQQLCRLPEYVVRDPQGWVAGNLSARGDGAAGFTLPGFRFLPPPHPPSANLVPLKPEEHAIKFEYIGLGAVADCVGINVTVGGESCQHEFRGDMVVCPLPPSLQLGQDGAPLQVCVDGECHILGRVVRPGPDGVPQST
Chain of pY1235-MET (human MET phosphorylated at tyrosine 1235) (human) (P08581 25-1390 limits assumed): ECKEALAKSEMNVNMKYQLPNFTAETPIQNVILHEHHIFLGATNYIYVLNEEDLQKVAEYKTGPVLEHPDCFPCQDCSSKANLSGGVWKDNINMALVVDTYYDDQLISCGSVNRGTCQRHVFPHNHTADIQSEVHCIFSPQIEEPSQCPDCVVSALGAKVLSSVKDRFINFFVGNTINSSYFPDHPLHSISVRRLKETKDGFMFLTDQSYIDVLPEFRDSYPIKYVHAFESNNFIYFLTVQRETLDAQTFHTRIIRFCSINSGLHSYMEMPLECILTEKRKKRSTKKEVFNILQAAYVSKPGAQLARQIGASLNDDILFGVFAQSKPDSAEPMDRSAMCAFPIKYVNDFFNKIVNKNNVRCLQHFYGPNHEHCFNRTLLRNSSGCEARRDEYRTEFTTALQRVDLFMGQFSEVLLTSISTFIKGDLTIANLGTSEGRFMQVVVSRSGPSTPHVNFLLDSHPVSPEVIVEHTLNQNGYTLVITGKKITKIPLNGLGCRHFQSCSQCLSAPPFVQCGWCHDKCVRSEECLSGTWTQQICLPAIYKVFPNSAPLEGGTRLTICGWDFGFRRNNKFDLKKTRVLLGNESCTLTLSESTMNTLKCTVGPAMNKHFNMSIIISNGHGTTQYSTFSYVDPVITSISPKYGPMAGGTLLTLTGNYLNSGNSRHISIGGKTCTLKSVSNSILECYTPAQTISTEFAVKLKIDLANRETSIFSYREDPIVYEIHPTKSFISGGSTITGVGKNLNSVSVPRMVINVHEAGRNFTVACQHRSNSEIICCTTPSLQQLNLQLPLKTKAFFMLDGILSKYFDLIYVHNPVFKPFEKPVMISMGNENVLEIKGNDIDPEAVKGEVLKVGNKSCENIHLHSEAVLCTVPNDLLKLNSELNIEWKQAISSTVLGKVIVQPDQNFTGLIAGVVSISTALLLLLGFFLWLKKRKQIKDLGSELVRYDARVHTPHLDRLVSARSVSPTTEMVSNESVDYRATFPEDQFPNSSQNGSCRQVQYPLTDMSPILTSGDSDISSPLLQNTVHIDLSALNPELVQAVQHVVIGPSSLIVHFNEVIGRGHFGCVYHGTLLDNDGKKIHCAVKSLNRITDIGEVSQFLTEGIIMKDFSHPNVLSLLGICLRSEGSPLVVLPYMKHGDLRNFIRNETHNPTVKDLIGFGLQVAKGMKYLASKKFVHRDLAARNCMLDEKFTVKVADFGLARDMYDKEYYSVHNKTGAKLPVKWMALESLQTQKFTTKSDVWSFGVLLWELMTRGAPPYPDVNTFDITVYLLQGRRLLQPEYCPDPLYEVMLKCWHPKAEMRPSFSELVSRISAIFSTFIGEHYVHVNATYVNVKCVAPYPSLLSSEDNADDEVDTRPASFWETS

Consider “antigen affinity purified goat polyclonal anti-human MET extracellular domain antibody (catalog number AF276, R&D Systems)”, for which the cross-reactivity in test [1] is below 5%.

B1: rabbit monoclonal anti-pY1235-MET antibody, clone 23111 (antibody, V domains shown)
VH: QSVEESGGRLVTPGTPLTLTCTVSGFSLSNYAMGWFRQAPGKGLEWIGIISRSGALWYANWANGRFTISKTSTTVDLKITSPTPEDTATYFCARTNYYDGYGGVDAVLTRFDFWGQGTLVTVSS
VL: DVVMTQTPSSVEAAVGGTVTIKCQASQSIGGGLSWYQQKAGQPPKLLIYGASTLESGVPSRFKGSGSGTEFTLTISDLECADAATYYCQSNYGSDIRDYGHTFGGGTEVVVKG
notes: Rabbit IgG from a hybridoma (Epitomics), later made as a recombinant protein in HEK293 cells; Biotin-conjugated when used as reporter in the sandwich immunoassay; also called antibody #23111; mAb #23111
On to B1, for which the IC50 in test [2] is 1.2 nM. Also, the binding result in test [3] was “no binding”.
